Experimental data taken from patent publication US20240352434, “COMPOSITIONS COMPRISING A VARIANT CAS12I3 POLYPEPTIDE AND USES THEREOF” (Arbor Biotechnologies, Inc., published 2024).

T1: Cas12i3 S536R (Unidentified, S536R)
T1 chain: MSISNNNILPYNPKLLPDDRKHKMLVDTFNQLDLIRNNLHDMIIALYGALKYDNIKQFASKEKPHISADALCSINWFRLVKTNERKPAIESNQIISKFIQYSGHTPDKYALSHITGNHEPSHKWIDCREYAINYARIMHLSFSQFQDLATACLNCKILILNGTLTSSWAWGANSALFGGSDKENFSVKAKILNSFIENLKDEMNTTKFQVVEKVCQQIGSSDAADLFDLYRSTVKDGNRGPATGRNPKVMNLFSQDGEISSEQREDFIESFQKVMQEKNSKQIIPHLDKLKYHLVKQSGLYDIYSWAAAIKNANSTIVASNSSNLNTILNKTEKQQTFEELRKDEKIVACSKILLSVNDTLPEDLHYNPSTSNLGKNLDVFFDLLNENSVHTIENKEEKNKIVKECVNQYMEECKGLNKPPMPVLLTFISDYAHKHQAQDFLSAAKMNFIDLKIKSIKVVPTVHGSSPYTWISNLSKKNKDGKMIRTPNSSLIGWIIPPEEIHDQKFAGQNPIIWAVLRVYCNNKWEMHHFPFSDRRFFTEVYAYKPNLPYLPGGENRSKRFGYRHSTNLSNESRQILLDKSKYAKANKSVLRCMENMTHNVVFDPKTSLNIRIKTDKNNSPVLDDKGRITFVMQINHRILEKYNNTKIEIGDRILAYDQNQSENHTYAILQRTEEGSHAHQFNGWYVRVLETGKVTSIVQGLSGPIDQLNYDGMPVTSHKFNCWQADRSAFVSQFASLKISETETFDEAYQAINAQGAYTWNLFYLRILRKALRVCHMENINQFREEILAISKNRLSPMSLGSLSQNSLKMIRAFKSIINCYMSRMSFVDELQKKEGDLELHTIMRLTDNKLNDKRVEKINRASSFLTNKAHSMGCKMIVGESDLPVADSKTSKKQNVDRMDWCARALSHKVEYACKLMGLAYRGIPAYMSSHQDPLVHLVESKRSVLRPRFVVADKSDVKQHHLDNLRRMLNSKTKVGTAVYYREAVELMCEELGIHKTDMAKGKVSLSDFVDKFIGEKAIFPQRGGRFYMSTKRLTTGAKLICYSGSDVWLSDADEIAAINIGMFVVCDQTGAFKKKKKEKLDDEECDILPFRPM

T2: Cas12i3 N711R (Unidentified, N711R)
T2 chain: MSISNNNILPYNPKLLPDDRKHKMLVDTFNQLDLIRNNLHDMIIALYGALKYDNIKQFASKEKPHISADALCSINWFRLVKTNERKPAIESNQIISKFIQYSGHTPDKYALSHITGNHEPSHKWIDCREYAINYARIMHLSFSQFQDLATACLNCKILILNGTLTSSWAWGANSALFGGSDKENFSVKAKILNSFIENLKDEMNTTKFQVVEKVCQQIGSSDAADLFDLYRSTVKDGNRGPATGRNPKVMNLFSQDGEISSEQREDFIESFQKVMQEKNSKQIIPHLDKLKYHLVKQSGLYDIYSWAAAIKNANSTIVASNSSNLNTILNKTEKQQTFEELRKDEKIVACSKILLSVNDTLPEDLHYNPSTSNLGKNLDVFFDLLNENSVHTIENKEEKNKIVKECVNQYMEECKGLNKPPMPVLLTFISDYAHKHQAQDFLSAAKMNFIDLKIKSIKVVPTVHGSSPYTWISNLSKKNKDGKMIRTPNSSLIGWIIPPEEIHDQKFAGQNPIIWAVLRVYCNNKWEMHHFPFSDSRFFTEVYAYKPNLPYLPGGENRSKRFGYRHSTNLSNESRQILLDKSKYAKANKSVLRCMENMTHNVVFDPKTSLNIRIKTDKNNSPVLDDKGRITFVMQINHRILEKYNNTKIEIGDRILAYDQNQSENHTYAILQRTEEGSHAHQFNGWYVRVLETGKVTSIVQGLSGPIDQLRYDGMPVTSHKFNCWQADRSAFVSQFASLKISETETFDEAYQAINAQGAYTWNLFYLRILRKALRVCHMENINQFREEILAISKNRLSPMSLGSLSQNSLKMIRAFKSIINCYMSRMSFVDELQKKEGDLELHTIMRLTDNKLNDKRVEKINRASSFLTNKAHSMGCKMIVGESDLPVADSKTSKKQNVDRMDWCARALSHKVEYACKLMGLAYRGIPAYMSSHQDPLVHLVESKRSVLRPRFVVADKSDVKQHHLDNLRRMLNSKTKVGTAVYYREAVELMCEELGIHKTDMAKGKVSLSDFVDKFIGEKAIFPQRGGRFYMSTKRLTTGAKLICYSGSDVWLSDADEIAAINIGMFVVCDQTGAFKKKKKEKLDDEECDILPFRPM


Experiments:
Cas12i3 S536R = molecular target: T1, Cas12i3 S536R; test: cell_activity; fold change in % indels, HEK293T; PAM not stated in example
How it was run: (§1)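 HEK293T cells lipofected with Lipofectamine 2000 (crRNA omitted in negative controls). Harvested 72 h post-transfection and lysed in QuickExtract. Target loci amplified by two-round PCR and sequenced on NextSeq (150 cycles) to quantify % indels.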

Cas12i3 N711R = molecular target: T2, Cas12i3 N711R; test: as above
How it was run: as §1

Row | Binder | binding signal (Cas12i3 S536R) | binding signal (Cas12i3 N711R)
1 | VEGFA_T2 crRNA ; VEGFA_T2 target (ssRNA ; dsDNA) RNA: AUAGUGUGUCCUUAGUUGACAUAAUCCUCCACCAGUCAUGGU DNA 1: AATCCTCCACCAGTCATGGT DNA 2: ACCATGACTGGTGGAGGATT | 1.8 fold of wild-type | 2.17 fold of wild-type
2 | AAVS1_T3 crRNA ; AAVS1_T3 target (ssRNA ; dsDNA) RNA: AUAGUGUGUCCUUAGUUGACAUGUGAGAAUGGUGCGUCCUAG DNA 1: GTGAGAATGGTGCGTCCTAG DNA 2: CTAGGACGCACCATTCTCAC | 2.16 fold of wild-type | 2.79 fold of wild-type
3 | EMX1_T5 crRNA ; EMX1_T5 target (ssRNA ; dsDNA) RNA: AUAGUGUGUCCUUAGUUGACAUUAUUAUUCCCAUAGGGAAGG DNA 1: TATTATTCCCATAGGGAAGG DNA 2: CCTTCCCTATGGGAATAATA | 1.27 fold of wild-type | 1.56 fold of wild-type
